# Measured values taken from FireProtDB (doi:10.1021/bi00014a029).
# Settings: Meleagris gallopavo, Thermal, Potassium phosphate/Potassium acetate 10 mM/10 mM/
# [1] = pH 1.5, CD, reversible: yes (82%)
# [2] = pH 1.99, DSC, reversible: yes (91%)
# [3] = pH 2.1, CD, reversible: yes (89%)
# [4] = pH 2.5, CD, reversible: yes (85%)
# [5] = pH 2.52, DSC, reversible: yes (90%)
# [6] = pH 2.56, DSC, reversible: yes (78%)
# [7] = pH 3.46, DSC, reversible: yes (90%)
# [8] = pH 3.48, DSC, reversible: yes (81%)
# [9] = pH 3.94, DSC, reversible: yes (87%)
# [10] = pH 4.51, DSC, reversible: yes (84%)
# [11] = pH 4.96, DSC, reversible: yes (100%)
# Sequence of Ovomucoid wild type, P68390 (P68390 whole entry): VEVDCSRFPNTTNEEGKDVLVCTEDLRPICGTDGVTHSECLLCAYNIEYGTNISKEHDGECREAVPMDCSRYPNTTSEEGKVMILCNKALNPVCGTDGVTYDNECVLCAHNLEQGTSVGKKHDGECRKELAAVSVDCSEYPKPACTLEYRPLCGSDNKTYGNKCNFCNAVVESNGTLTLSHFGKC
substance,measurement,setting,value
"Ovomucoid wild type, P68390",Tm,[1],60.5 °C
same,unfolding enthalpy (van 't Hoff),[1],40.9 kcal/mol
same,Tm,[2],63.1 °C
same,unfolding enthalpy (calorimetric),[2],44.2 kcal/mol
same,unfolding enthalpy (van 't Hoff),[2],44.6 kcal/mol
same,Tm,[3],62.7 °C
same,unfolding enthalpy (van 't Hoff),[3],42.8 kcal/mol
same,Tm,[4],66.2 °C
same,unfolding enthalpy (van 't Hoff),[4],43.7 kcal/mol
same,Tm,[5],68.5 °C
same,unfolding enthalpy (calorimetric),[5],47.7 kcal/mol
same,unfolding enthalpy (van 't Hoff),[5],49.2 kcal/mol
same,Tm,[6],65.7 °C
same,unfolding enthalpy (calorimetric),[6],45.4 kcal/mol
same,unfolding enthalpy (van 't Hoff),[6],45.4 kcal/mol
same,Tm,[7],78.7 °C
same,unfolding enthalpy (calorimetric),[7],48.1 kcal/mol
same,unfolding enthalpy (van 't Hoff),[7],49.6 kcal/mol
same,Tm,[8],78.7 °C
same,unfolding enthalpy (calorimetric),[8],50 kcal/mol
same,unfolding enthalpy (van 't Hoff),[8],51 kcal/mol
same,Tm,"pH 3.51, DSC",80.8 °C
same,unfolding enthalpy (calorimetric),"pH 3.51, DSC",55 kcal/mol
same,unfolding enthalpy (van 't Hoff),"pH 3.51, DSC",57.9 kcal/mol
same,Tm,[9],85.7 °C
same,unfolding enthalpy (calorimetric),[9],55.3 kcal/mol
same,unfolding enthalpy (van 't Hoff),[9],52.7 kcal/mol
same,Tm,[10],85.2 °C
same,unfolding enthalpy (calorimetric),[10],57.4 kcal/mol
same,unfolding enthalpy (van 't Hoff),[10],56.3 kcal/mol
same,Tm,[11],87.8 °C
same,unfolding enthalpy (calorimetric),[11],62.4 kcal/mol
